The numbers were not newly measured in article PMC9659328, which cites them from elsewhere.

This series deals with thrombin (Homo sapiens) (UniProt P00734).

Regarding thrombomodulin (from UniProt P07204), the Kd was 2 nM.
